Measured values: the supplement of paper PMC6757056
± gives the standard deviation of the averaged measurements.

B1: library; a variant is named by its letters at N, in order (parent)
chain: GCUGUCACCGGUGCUUGGUACGUUAUAUUCAGCCGGUCUGAUGAGUCUNNNNNNAGACGAAACAGC

Key:
(6R,S)-folinic acid [1] = variants of: B1; test: normalized RNA/DNA level without ligand (relative to sTRSVctl = 100) (log10 (% of sTRSVctl)); HEK293T overexpressing SLC46A1; higher = less ribozyme self-cleavage, higher mRNA level; conditions: without (6R,S)-folinic acid; ligand present: no
Method in brief: (§1)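 Library plasmids encoding reporter-linked ribozyme switches (mCherry, or eGFP for some folinic acid experiments) were transfected into HEK293T at 4 µg per 6-well well. Ligand, when used, was added 1 h before transfection. Total RNA was extracted with EDTA 72 h later, then reverse-transcribed, amplified, barcoded and sequenced. RNA level was RNA reads over DNA reads, divided by a spiked-in non-cleaving control (or the top 25 sequences), ×100, log10; only sequences with ≥100 DNA reads were kept.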

(6R,S)-folinic acid [2] = variants of: B1; test: normalized RNA/DNA level with ligand (relative to sTRSVctl = 100) (log10 (% of sTRSVctl)); HEK293T overexpressing SLC46A1; ligand concentration (+) RNA-Seq: 6 mM; higher = less ribozyme self-cleavage, higher mRNA level; conditions: with (6R,S)-folinic acid; ligand present: yes
Method in brief: as §1

Row | Variant | normalized RNA/DNA level without ligand (log10) ((6R,S)-folinic acid [1]) | normalized RNA/DNA level with ligand (log10) ((6R,S)-folinic acid [2])
1 | CGACAC | 2.026 ± 0.012 | 2 ± 0.037
2 | CGACAU | 2.006 ± 0.006 | 2.02 ± 0.044
3 | CGACAA | 1.945 ± 0.013 | 1.96 ± 0.029
4 | CGACAG | 1.95 ± 0.031 | 1.972 ± 0.018
5 | CGAGCU | 2.014 ± 0.02 | 2.03 ± 0.04
6 | CGAGCG | 1.994 ± 0.015 | 1.998 ± 0.017
7 | CGAGCC | 2.06 ± 0.028 | 2.03 ± 0.039
8 | CGAGCA | 2 ± 0.021 | 2.02 ± 0.029
9 | GGAUAG | 1.95 ± 0.0034 | 2.03 ± 0.038
10 | GGAUAU | 2.0169 ± 0.0015 | 2.02 ± 0.023
11 | GGAUAC | 1.988 ± 0.011 | 2.034 ± 0.013
12 | UGAUGC | 1.954 ± 0.013 | 1.998 ± 0.01
13 | CGCCAU | 1.986 ± 0.0097 | 1.98 ± 0.034
14 | CGCCAC | 2 ± 0.028 | 1.99 ± 0.042
15 | CGCCAA | 1.973 ± 0.014 | 2.02 ± 0.048
16 | UGAGGC | 1.982 ± 0.0067 | 1.98 ± 0.073
17 | UGAGGU | 1.918 ± 0.017 | 2.02 ± 0.032
18 | GGACUU | 2.007 ± 0.0068 | 1.976 ± 0.016
19 | GGACUC | 2.0453 ± 0.0012 | 2.05 ± 0.03
20 | GGACUG | 1.9977 ± 0.00047 | 2 ± 0.059
21 | GGAGGG | 1.98 ± 0.028 | 2.04 ± 0.046
22 | GGAGGA | 1.975 ± 0.0041 | 2.01 ± 0.046
23 | AGCAGG | 1.944 ± 0.0028 | 2.01 ± 0.042

Row | Variant | normalized RNA/DNA level without ligand (log10) ((6R,S)-folinic acid [1]) | normalized RNA/DNA level with ligand (log10) ((6R,S)-folinic acid [2])
24 | AGCAGU | 1.991 ± 0.0037 | 2.01 ± 0.028
25 | AGCAGC | 2.028 ± 0.0032 | 2.03 ± 0.054
26 | CGACCC | 2.05 ± 0.028 | 2.02 ± 0.051
27 | CGACCU | 2.061 ± 0.0049 | 2.016 ± 0.013
28 | CGACCG | 1.991 ± 0.007 | 1.99 ± 0.018
29 | CGACCA | 2.079 ± 0.0068 | 2.03 ± 0.034
30 | CGAGUC | 2.053 ± 0.0089 | 2.037 ± 0.0081
31 | CGAGUA | 1.965 ± 0.0014 | 2 ± 0.04
32 | GGCCAC | 2.022 ± 0.0039 | 1.99 ± 0.016
33 | GGCCAG | 2.037 ± 0.0046 | 2.016 ± 0.02
34 | UGACAU | 1.9505 ± 0.00041 | 1.99 ± 0.05
35 | UGACAC | 2.002 ± 0.0083 | 2.008 ± 0.0047
36 | GGACCU | 2.062 ± 0.0094 | 2.02 ± 0.033
37 | GGACCA | 2.054 ± 0.017 | 2.02 ± 0.029
38 | GGACCC | 2.045 ± 0.019 | 2.027 ± 0.015
39 | AGCAUU | 2.012 ± 0.0048 | 2.01 ± 0.028
40 | AGCAUG | 1.957 ± 0.004 | 2.03 ± 0.018
41 | AGCAUC | 2.082 ± 0.012 | 2.0495 ± 0.0016
42 | AGCAUA | 1.985 ± 0.014 | 2.017 ± 0.016
43 | GGCAGU | 2.058 ± 0.0031 | 2.013 ± 0.0043
44 | GGCAGC | 2.001 ± 0.008 | 1.98 ± 0.032
45 | GGCAGA | 2.077 ± 0.0039 | 2.033 ± 0.004
46 | GGCAGG | 2.064 ± 0.015 | 2.045 ± 0.0058

Row | Variant | normalized RNA/DNA level without ligand (log10) ((6R,S)-folinic acid [1]) | normalized RNA/DNA level with ligand (log10) ((6R,S)-folinic acid [2])
47 | GGCCCU | 2.099 ± 0.012 | 2.061 ± 0.013
48 | GGCCCA | 2.053 ± 0.01 | 2.032 ± 0.012
49 | GGCCCG | 2.07 ± 0.0078 | 2.07 ± 0.023
50 | GGCCCC | 2.023 ± 0.0026 | 2.01 ± 0.026
51 | GGAGAG | 1.85 ± 0.02 | 1.97 ± 0.038
52 | GGAUCC | 2.0688 ± 0.00086 | 2.06 ± 0.037
53 | GGAUCG | 2.0373 ± 0.00033 | 2.08 ± 0.045
54 | GGAUCU | 2.037 ± 0.0059 | 2.03 ± 0.045
55 | GGAUCA | 2.02 ± 0.021 | 2.03 ± 0.05
56 | AGACCG | 2.05 ± 0.026 | 2.04 ± 0.029
57 | AGACCC | 2.039 ± 0.0085 | 2.02 ± 0.055
58 | UGCCGA | 1.9547 ± 0.0011 | 2.02 ± 0.046
59 | UGCCGC | 2.03 ± 0.031 | 2.02 ± 0.048
60 | UGCCGU | 2.009 ± 0.019 | 2.02 ± 0.042
61 | UGAUUC | 2.058 ± 0.0048 | 2.04 ± 0.04
62 | UGAUUU | 1.9907 ± 0.00083 | 2.02 ± 0.023
63 | GGCACA | 2.085 ± 0.009 | 2.03 ± 0.031
64 | GGCACG | 2.047 ± 0.014 | 2.03 ± 0.038
65 | AGAGCA | 1.977 ± 0.0046 | 2.01 ± 0.051
66 | AGAGCC | 2.05 ± 0.003 | 2.04 ± 0.045
67 | AGAGCG | 1.775 ± 0.0033 | 1.97 ± 0.029
68 | UGCCAG | 1.812 ± 0.0093 | 1.9581 ± 0.00078
69 | UGCCAU | 1.982 ± 0.0048 | 2 ± 0.021

Row | Variant | normalized RNA/DNA level without ligand (log10) ((6R,S)-folinic acid [1]) | normalized RNA/DNA level with ligand (log10) ((6R,S)-folinic acid [2])
70 | GGAUGU | 1.972 ± 0.0047 | 2.03 ± 0.052
71 | GGAUGG | 1.948 ± 0.012 | 2.02 ± 0.033
72 | GGAUGC | 1.912 ± 0.002 | 1.962 ± 0.015
73 | GGAUGA | 2.024 ± 0.02 | 2.058 ± 0.0075
74 | UGCAGU | 1.9094 ± 0.0015 | 1.96 ± 0.026
75 | UGCAGC | 1.982 ± 0.0063 | 2.012 ± 0.018
76 | UGAGAC | 1.912 ± 0.011 | 1.98 ± 0.028
77 | AGCCAC | 2.016 ± 0.003 | 2 ± 0.037
78 | AGCCAA | 1.9858 ± 0.00027 | 1.99 ± 0.037
79 | AGCCAG | 1.985 ± 0.0073 | 2.04 ± 0.035
80 | AGCCAU | 1.986 ± 0.013 | 1.99 ± 0.029
81 | GGCCGC | 2.073 ± 0.012 | 2.083 ± 0.011
82 | GGCCGU | 2.0789 ± 0.0012 | 2.02 ± 0.007
83 | GGCCGG | 2.08 ± 0.021 | 2.051 ± 0.015
84 | GGCCGA | 2.081 ± 0.0077 | 2.05 ± 0.037
85 | UGAUCC | 2.059 ± 0.012 | 2.03 ± 0.049
86 | UGAUCA | 1.99 ± 0.021 | 2 ± 0.038
87 | UGAUCU | 1.995 ± 0.012 | 2.04 ± 0.091
88 | CGCAGG | 1.953 ± 0.012 | 2.03 ± 0.039
89 | CGCAGA | 2.039 ± 0.0068 | 2.051 ± 0.015
90 | CGCAGU | 2.037 ± 0.015 | 2.04 ± 0.049
91 | CGCAUG | 2.01 ± 0.019 | 2.01 ± 0.022
92 | CGCAUC | 2.08 ± 0.021 | 1.97 ± 0.036

Row | Variant | normalized RNA/DNA level without ligand (log10) ((6R,S)-folinic acid [1]) | normalized RNA/DNA level with ligand (log10) ((6R,S)-folinic acid [2])
93 | GGAUUG | 1.996 ± 0.0084 | 2.05 ± 0.053
94 | GGAUUA | 2.014 ± 0.0063 | 2.0315 ± 0.0011
95 | GGAGUU | 2.011 ± 0.0026 | 2.05 ± 0.039
96 | GGAGUC | 2.02 ± 0.023 | 2.01 ± 0.024
97 | GGAGUG | 1.915 ± 0.004 | 2.01 ± 0.029
98 | UGCACA | 1.97 ± 0.024 | 2.01 ± 0.036
99 | UGCACC | 2.036 ± 0.0046 | 1.98 ± 0.028
100 | UGCACG | 1.8081 ± 0.0015 | 1.977 ± 0.013
101 | UGCACU | 2.017 ± 0.0058 | 2.04 ± 0.033
102 | GGCCUA | 2.04 ± 0.021 | 2.01 ± 0.045
103 | CGAUAU | 1.949 ± 0.0095 | 2.01 ± 0.028
104 | CGAUAG | 1.959 ± 0.0024 | 1.977 ± 0.01
105 | CGAUAA | 1.946 ± 0.015 | 1.98 ± 0.04
106 | CGAUAC | 1.995 ± 0.013 | 2.015 ± 0.0083
107 | AGACUG | 2.003 ± 0.0063 | 2.01 ± 0.04
108 | AGACUU | 2.021 ± 0.0033 | 1.99 ± 0.024
109 | AGACUA | 1.977 ± 0.0092 | 1.98 ± 0.043
110 | AGACUC | 2.038 ± 0.0045 | 2.05 ± 0.021
111 | AGCCCC | 2.051 ± 0.0083 | 2 ± 0.036
112 | AGCCCA | 2.045 ± 0.0089 | 2.02 ± 0.028
113 | AGCCCG | 2.02 ± 0.0096 | 2.02 ± 0.0065
114 | AGCCCU | 2.078 ± 0.009 | 2.05 ± 0.042
115 | GGACAG | 1.954 ± 0.0092 | 1.99 ± 0.052
